This is an account of results in the nanobody polyreactivity screen of Harvey et al. (2022).

The data set is described as follows: yeast display, Sf9 membrane polyspecificity reagent, FACS + sequencing; frameworks hold sequencing errors. In a few lines: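 A synthetic nanobody library was expressed on Saccharomyces cerevisiae BJ5465 by galactose induction for 36–48 hours. The library was stained for 1 hour at 4 °C with 10% biotinylated, detergent-solubilized Sf9 membrane reagent and enriched with streptavidin microbeads before FACS. Low and high (top ~1%) gates were set on anti-HA fluorescence for expression and streptavidin fluorescence for reagent binding, and each polyreactivity label reflects the gate of origin.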
In the case of “QVQLVESGGGLVQAGGSLRLSCAASGSTFWGNAMGWYRQAPGKERELVAAISSRGGSTYYADSVKGRFTISRDNAKNTVYLQMNSLKPEDTAVYYCNTLQSSHGSSQYDSWGQGTQVTVSS”, the “polyreactivity (PSR sort gate)” value is recorded as “low polyreactivity”.

In the case of “QVQLVESGGGLVQAGGSLRLSCAASGSTFWHYVMGWYRQAPGKERELVAAISNGGRTNYADSVKGRFTISRDNAKNTVYLHMKSMKPEVTAVYYCAARRRVSYHLYGYWGQGTQVTVSS”, the “polyreactivity (PSR sort gate)” value was “high polyreactivity”. For “QVQLVESGGGLVQAGGSLRLSCAASGSTFWIYAMGWYRQAPGKERELFAAITLRSGSTYYADSVKGRFTISRDNSKNTVYLQMNSLKPEDTAVYYCATDSWGFDSPNYNYWGQCTQVTVSS”, the “polyreactivity (PSR sort gate)” value was “low polyreactivity”. The result for “QVQLVESGGGLVQAGGSLRLSCAASGSTFWIYAMGWYRQAPGKERELVAAITLRSGSTYYADSVKGRFTISRDNAKNTVYLQMNSLKPEDTSVYYCATDSWGVDRPNYNYWGQGTQVTVSS” reads “low polyreactivity”; that for “QVQLVESGGGLVQAGGSLRLSCAASGSTFWPYAMGWYRQAPGKERELVATIRWSGGSTSYADSVKGRFTISRDNAKNTVYVQMNSLKPEDTAVYYCAARDFHYYRFKTYGYWGQGTQVTVSS”, “high polyreactivity”. To “QVQLVESGGGLVQAGGSLRLSCAASGSTFWQNAMGWYRPAPGKERELVAAIRSRGDRTYYADSVKGRFTISRDNAKNTVYLQMNSLKPEDTAVYYCAAYAGYSDQARYYYWGQGTLVTVSS” belongs “high polyreactivity”. As to “QVQLVESGGGLVQAGGSLRLSCAASGSTFWRYAMGWYRQAPGKERELVAGITWNGGSTYYADSVKGRFTISRDNAKNTVYLQMNCLIPEDTAVYYCAARRSWGYIYRLGYGMDYWGQGTQVTVSS”, the “polyreactivity (PSR sort gate)” value is given as “high polyreactivity”. As to “QVQLVESGGGLVQAGGSLRLSCAASGSTFWSNAMGWYRHAPGKERELVAVISRRCVRKYYADSVKGRFTISRDNAKNNVYLQMNSLKPEDTAVFYCNAEVYGELDYWGQGTQVNVSS”, the “polyreactivity (PSR sort gate)” value is on record as “low polyreactivity”. On to “QVQLVESGGGLVQAGGSLRLSCAASGSTFWSNAMGWYRQAPGKERELVATINSGDGTNYADSVKGRFTISRDNAKNTVYLQMNSLKPEDTAVYYCAAEKYYPWGWYTYDYWGQGTQVTVSS”, for which the “polyreactivity (PSR sort gate)” value is “high polyreactivity”. As to “QVQLVESGGGLVQAGGSLRLSCAASGSTFWSYAMGWYRPAPGKERELVAAITSGGRTYYADSVKGRFTISRDNAKNTVYLQMNSLKPEDTAVYYCNAVVRHTYRRFDYWGQGTQVTVSS”, the “polyreactivity (PSR sort gate)” value is “high polyreactivity”. The result for “QVQLVESGGGLVQAGGSLRLSCAASGSTFWSYAMGWYRQAPGKERELVAAITSGGRTYYADSVKGRFTISRDNAKNTVYLQMNSLKPEDTAVYYCNAVVRHTYRRFDYWGQGTQVTVSS” reads “high polyreactivity”; that for “QVQLVESGGGLVQAGGSLRLSCAASGSTFWTNAMGWYRQAPGKERQLVAASTEDGGSTYYADSVKGRFTISRDNAKNTVYLQMNSLKREVTAVYYCATVIGYLDDYLFPYPVPYYYWGQGTQVTVSS”, “low polyreactivity”.

As to “QVQLVESGGGLVQAGGSLRLSCAASGSTFWWYAMGWYRQAPGKERELVAAISIGGATKYADSVKGRFTISRDNAKNTFYLQMNILKPEDTAVYYCAAVVSYHYVPYGYWGQCTQVTVSS”, the “polyreactivity (PSR sort gate)” value was “low polyreactivity”. In the case of “QVQLVESGGGLVQAGGSLRLSCAASGSTFWWYAMGWYRQAPGKERELVATIRDGGSTNYADSVKGRFTISRDNAKNTVYLQMNSLKPEDTAVYYCNADVYPYYRKPWMDYWGQGTQVTVSS”, the “polyreactivity (PSR sort gate)” value was “low polyreactivity”. To “QVQLVESGGGLVQAGGSLRLSCAASGSTFWYNAMGWYRQAPGKERELVAAITTRGDSTYYADSVKGRFTISRDNAKNTVYLQMNSLKPEDTAVYYCAADWAWYSYDWYYWYDYWGQGTQVTVSS” belongs “high polyreactivity”; to “QVQLVESGGGLVQAGGSLRLSCAASGSTFWYYAMGWYRQAPGKERELDADITYSGVSTYYADSVKGRFTISRDNAKNTVYLQMNSLKPEDTAVYYCYADWGSVNGYAGYYYWGQGTQVTVSS”, “low polyreactivity”; to “QVQLVESGGGLVQAGGSLRLSCAASGSTFWYYAMGWYRQAPGKERELVAAITRDGTTYYADSVKGRFTISRDNAKNTVYLQMNSLKPEDTAVYYCAVDIDNWSEYDYWGQGTQVTVSS”, “low polyreactivity”.

With “QVQLVESGGGLVQAGGSLRLSCAASGSTFWYYAMGWYRQAPGKERELVAAITTGGDTTNYADSVKGRFTISRDNAKNTVYLQMNSLKPEDTAVYYCARDTGYDLIVLPDDSWGQGTQVTVSS”, the “polyreactivity (PSR sort gate)” value is reported as “low polyreactivity”. “QVQLVESGGGLVQAGGSLRLSCAASGSTFWYYGMGWYRQAPGKERELVARINWSTGRTYYADSVKGRFTISRDNAKNTVYLQMNSLKPEDTAVYYCNALNPYKGQEAHYDYWGQGTQVTVSS”: the “polyreactivity (PSR sort gate)” value is reported as “high polyreactivity”. To “QVQLVESGGGLVQAGGSLRLSCAASGSTFWYYTMGWYRQAPGKERELVATISWRGGRTTYADSVKGRFTISRDNAKNTVYLQMNSLKPEDTAVYYCNAERFPGYGGPSRYLYQEYVYWGQGTQVTVSS” belongs “low polyreactivity”; to “QVQLVESGGGLVQAGGSLRLSCAASGSTFYANAMGWYRQAPGKERELVAAIDSGGTTTYADSVKGRFTISRDNAKNTVYLQMNSLKPEDTAVYYCAADQYWYFWYDYWGQGTQVTVSS”, “low polyreactivity”.

As for “QVQLVESGGGLVQAGGSLRLSCAASGSTFYANAMGWYRQAPGKERELVAAITRSGAGTYYADSVKGRFTISRDNAKNTVYLQMNSLKPEDTAVYYCNAGSSFWVSRIGYDYWGQGTQVTVSS”, the “polyreactivity (PSR sort gate)” value is listed as “high polyreactivity”. The result for “QVQLVESGGGLVQAGGSLRLSCAASGSTFYANTMGWYRQAPGKERELVAAISRRGGRTYYADSVKGRFTISRDNAKNTVYLQMNSLKPDDTAVYYCARRGYSSRTIKRYNYWGQGTQVTVSS” reads “high polyreactivity”. As for “QVQLVESGGGLVQAGGSLRLSCAASGSTFYAYTMGWYRKAPGKERELVAGISRRGGTTYYADSVKGRFTISRDNAKNTVYLQMNSLKPEYTAVYYCAADKTKPQASEGYYAYYYWGQGTQVTVSS”, the “polyreactivity (PSR sort gate)” value is given as “low polyreactivity”. The result for “QVQLVESGGGLVQAGGSLRLSCAASGSTFYAYTMGWYRQAPGKERELVADISRSGGSTYYADSVKGRFTISRDNAKNTVYLQMNSLKPEDTAVYYCAAASSYYRGHYDYWVQGTQVTVSS” reads “high polyreactivity”; that for “QVQLVESGGGLVQAGGSLRLSCAASGSTFYDNAMGWYRQAPGKERELVARITWNGGRTYYADSVKGRFTISRDNAKNTVYLQMNSLKPEDTAVYYCNAVYWGYGKYDYWGQGTQVTVSS”, “high polyreactivity”. To “QVQLVESGGGLVQAGGSLRLSCAASGSTFYDNTMGWYRQPPGKERELVAVITTDGDRTYYADSVKGRFTISRDNAKNTVYLQMKSLKPEDTAVYYCNARRAYWVVYPGDDYWGQGTQVSVSS” belongs “low polyreactivity”; to “QVQLVESGGGLVQAGGSLRLSCAASGSTFYDYAMGWYRQAPGKERELVAAISQSGGSTYYADSVKGRFTISRDNAKNTVYLQMNSLKPEDTAVYYCAADSGYSLYDYWGQGTQVTVSS”, “low polyreactivity”; to “QVQLVESGGGLVQAGGSLRLSCAASGSTFYDYAMGWYRQAPGKERELVAAISRSGGSTYYADSVKGRFTISRDNAKNTVYLQRNSLKPEDTAVYYCAASRATLLRYGYWGQGTQVTVSS”, “low polyreactivity”. To “QVQLVESGGGLVQAGGSLRLSCAASGSTFYFNTMGWYRQAPGKERELVAAINSIGGSTYYADSVKGRFTISRDNAKNTVYLQMNSLKPEDTAVYYCAKLKRLYYWSSHTSYGYDYWGQGTQVTVSS” belongs “high polyreactivity”; to “QVQLVESGGGLVQAGGSLRLSCAASGSTFYFYAMGWYRQAPGKERELVASITVRGGRTYCADSVKGRFTISRDNAKNTVYLQMNSLKPEDTAVYYCAENWSYRAYDYWGQGTQVTVSS”, “low polyreactivity”; to “QVQLVESGGGLVQAGGSLRLSCAASGSTFYGNAMGWYRQAPGKERELVAAITGDGGSTYYADSVKGRFTISRDNAKNTVYLQMNSLKPEDTAVYYCAVDVIVLGQWPGQLDEFDYWGQGTQVTVSS”, “low polyreactivity”.

As to “QVQLVESGGGLVQAGGSLRLSCAASGSTFYGNAMGWYRQAPGKERELVAAITWGDASTYYADSVKGRFTISRDNAKNTVYLQMNSLKPEDTAVYYCAADFYYAYYWGQGTQVTVSS”, the “polyreactivity (PSR sort gate)” value is listed as “low polyreactivity”. “QVQLVESGGGLVQAGGSLRLSCAASGSTFYGYAMGWYRPAPGKERELVAAITIGGRTYYADSVKGRFTISRDNAKNTVYLQMNSLKPEDTAVYYCAAAILRTVPELGSRRTYYYWGQGTQVTVSS”: the “polyreactivity (PSR sort gate)” value is “high polyreactivity”. To “QVQLVESGGGLVQAGGSLRLSCAASGSTFYGYAMGWYRQAPGKERELVAAISSNGDSTYYADSVKGRFTISRDNAKNSVYLQMNILKPEDTAVYYCATDPEGSTGGGYEFWGQGTQVTVSS” belongs “low polyreactivity”; to “QVQLVESGGGLVQAGGSLRLSCAASGSTFYGYAMGWYRQAPGKERELVAVINYSGGTTSYADSVKGRFTISRDNAKNTVYLQMNSLKPEDTAVYYCAARRRWAILRYRGNYDYWGQGTQVTVSS”, “high polyreactivity”; to “QVQLVESGGGLVQAGGSLRLSCAASGSTFYGYGMGWYREAPGKERELVAAITGSGDTTYYADSVKGRFTISRDNAKNTVYLQMNSLKREDTAVYYCNAGWHAEYDYWGQGTQVTVSS”, “low polyreactivity”. The result for “QVQLVESGGGLVQAGGSLRLSCAASGSTFYHNVMGWSRQAPGKERELVASIDTGDSTNYADSVKGRFTISRDNAKNTVYLQMNSLKPEDTAVYYCNADSYPALNKRGYDYWGQGTQVTVSS” reads “low polyreactivity”; that for “QVQLVESGGGLVQAGGSLRLSCAASGSTFYINAMGWYRPAPGKERELVAAITDSGGSTYYADSVKGRFTISRDNAKNTVSLQMNSLKPEDTAVYYCATDGYDPRGYDYWGQGTQVTVSS”, “high polyreactivity”.

In the case of “QVQLVESGGGLVQAGGSLRLSCAASGSTFYINAMGWYRQAPGKERELVAAISWSGGSTYYADSVKGRFTISRDNAKNTVYLQMNSMKPEDTAVYYCAADWYLGWSLDYDYWGQGTQVTVSS”, the “polyreactivity (PSR sort gate)” value is listed as “low polyreactivity”.
